Measurements reported in US20220273733A1.

Legend:
[1] = target: soymeal proteins (ethanol-precipitated, heat-denatured soy-meal protein mixture)
[2] = target: lactoferrin (glycosylated, of human milk) (human) (UniProt P02788)

Glycan Yield (ug), released glycans measured by phenol sulphuric total carbohydrate assay [1] [µg] | N-glycans in fecal samples (nano-HPLC-Chip-TOF) compared with the lactoferrin N-glycan library (out of 18 N-glycans) [2] | Binder
75 |  | EndoBI-1 (endo-β-N-acetylglucosaminidase from B. infantis), enzyme solution used in Example 1 (enzyme) DAVSPTQETIQSTGRHFMVYYRAWRDVTMKGVNTDLPDDNWISMYDIPYGVDVVNIFSYVPSGQEEQAQPFYDKLKSDYAPYLHSRGIKLVRGIDYTGVAVNGFRTFMKEQNKTESEATEADYDAYAKQVIDKYMISVGLDGLDIDMEAHPNDADVKISDNVIRALSKHIGPKSAKPDTTMFLYDTNGSYLNPFKNVAECFDYVAYQQYGSSSDRTARAAADYQPYIGNEFVPGLTFPEEGDMNNRWYDATEPYEESHFYQVASYVREHNLGGMFVYALDRDGRNYDEDLRRIVPSNLLWTKTAIAESEGMALDTAKTAANHYLDRMSLRQVIDDNAASADKARDMVGKAANLYETNKAVLGGDYGEGFSNTYDPTLEAGLLGIDISVLQQQIDKSSEIIGADTAESDAKTALRMARDAAIDGLTGKIYTADQVSAWSQALKAALDATVPVPTPDSTDQNGNRDKVTNHKVQGQPKQLSATGISTDIIVAVGVTLAIAGVALSLSRKLS
 | 14 | EndoBI-1 of B. infantis EVC001 as acting in the gut of EVC001-fed infants (enzyme) DAVSPTQETIQSTGRHFMVYYRAWRDVTMKGVNTDLPDDNWISMYDIPYGVDVVNIFSYVPSGQEEQAQPFYDKLKSDYAPYLHSRGIKLVRGIDYTGVAVNGFRTFMKEQNKTESEATEADYDAYAKQVIDKYMISVGLDGLDIDMEAHPNDADVKISDNVIRALSKHIGPKSAKPDTTMFLYDTNGSYLNPFKNVAECFDYVAYQQYGSSSDRTARAAADYQPYIGNEFVPGLTFPEEGDMNNRWYDATEPYEESHFYQVASYVREHNLGGMFVYALDRDGRNYDEDLRRIVPSNLLWTKTAIAESEGMALDTAKTAANHYLDRMSLRQVIDDNAASADKARDMVGKAANLYETNKAVLGGDYGEGFSNTYDPTLEAGLLGIDISVLQQQIDKSSEIIGADTAESDAKTALRMARDAAIDGLTGKIYTADQVSAWSQALKAALDATVPVPTPDSTDQNGNRDKVTNHKVQGQPKQLSATGISTDIIVAVGVTLAIAGVALSLSRKLS
